Assay results: patent US20220073621A1 (EUCURE BEIJING BIOPHARMA, published 2022)
Changes are numbered by the printed parent chain.

B1: 3F2-H2K2-IgG1 (antibody, V domains shown)
VH: DVQLQESGPGLVKPSETLSLTCTVSGYSITSGYNWHWIRQFPGNGLEWMGYIHHSSITNYNPSLKSRITISRDTSKNQFSLKLSSVTAADTATFYCAREGYDYDWFAYWGQGTLVTVSS
VL: DIVLTQSPDFQSVTPKEKVTLSCRASQSISNNLHWYQQKPDESPKLLIKYASQSISGIPSRFSGSGSGTDFTLTINSVEAEDFAMYFCQQSKSWPFTFGQGTRLEIK
B2: 3F2-H1K1-IgG1 (antibody, V domains shown)
VH: B1 VH with D1Q, F94Y
VL: B1 VL with L21I, S22T
B3: 3F2-H1K2-IgG1 (antibody, V domains shown)
VH: B1 VH with D1Q, F94Y
VL: B1 VL
B4: 3F2-H1K3-IgG1 (antibody, V domains shown)
VH: B1 VH with D1Q, F94Y
VL: B1 VL with F10T, K18S, P40S, D41H
B5: 3F2-H2K1-IgG1 (antibody, V domains shown)
VH: B1 VH
VL: B1 VL with L21I, S22T
B6: 3F2-H2K3-IgG1 (antibody, V domains shown)
VH: B1 VH
VL: B1 VL with F10T, K18S, P40S, D41H
B7: 3F2-H3K1-IgG1 (antibody, V domains shown)
VH: B1 VH with A89E
VL: B1 VL with L21I, S22T
B8: 3F2-H3K2-IgG1 (antibody, V domains shown)
VH: B1 VH with A89E
VL: B1 VL
B9: 3F2-H3K3-IgG1 (antibody, V domains shown)
VH: B1 VH with A89E
VL: B1 VL with F10T, K18S, P40S, D41H
B10: 3F2-H4K1-IgG1 (antibody, V domains shown)
VH: B1 VH with G45K, S80F, K82Q, A89E
VL: B1 VL with L21I, S22T
B11: 3F2-H4K2-IgG1 (antibody, V domains shown)
VH: B1 VH with G45K, S80F, K82Q, A89E
VL: B1 VL
B12: 3F2-H4K3-IgG1 (antibody, V domains shown)
VH: B1 VH with G45K, S80F, K82Q, A89E
VL: B1 VL with F10T, K18S, P40S, D41H
B13: 07-6A11-mHvKv-IgG1 (antibody, V domains shown)
VH: DVQLVESGGGLVQPGGSRKLSCAASGFTFSSFGMHWVRQAPEKGLEWVAYISSGSNTIYYADTVKGRFTISRDNPKNTLFLQMTSLRSEDTAIYYCTRNGYDGWYAMDYWGQGTSVTVSS
VL: QIVLTQSPAIMSASPGEKVTMTCSASSSVSYIHWFQQKSGTSPKRWIYDTSKLASGVPARFSGRGSGTSYSLTISSMEAEDAATYYCQQWSTNPFTFGSGTKLEIK

biological target: T1, hPD-L1-His (human, UniProt Q9NZQ7 19-238); assay: SPR (Biacore T200), antibody on Protein A chip, hPD-L1-His injected, 1:1 fit
T1 construct: Bought protein; also called hPD-L1-His (manufactured by Edison); not shown: His tag
T1 sequence (Q9NZQ7 19-238 limits assumed): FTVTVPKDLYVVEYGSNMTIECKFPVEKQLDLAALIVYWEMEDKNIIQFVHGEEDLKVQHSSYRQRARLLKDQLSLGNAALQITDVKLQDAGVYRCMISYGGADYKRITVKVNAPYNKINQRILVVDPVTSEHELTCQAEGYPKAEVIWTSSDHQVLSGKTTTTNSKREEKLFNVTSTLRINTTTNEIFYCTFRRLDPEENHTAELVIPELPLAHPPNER
Protocol: Subsequently, the binding affinity of the anti-PD-L1 chimeric antibody, humanized antibody, and marketed control antibody to hPD-L1-His (manufactured by Edison) were determined by surface plasmon resonance (Biacore T200 biosensor, Biacore, INC, Piscataway N.J.) equipped with pre-immobilized Protein A sensor chips.
The detection results were read after the chip was regenerated with pH 2.0 glycine (30 μl/min, 10-20 s). Kinetic association rates (kon) and dissociation rates (koff) were obtained simultaneously by fitting the data globally to a 1:1 Langmuir binding model (Karlsson, R. Roos, H. Fagerstam, L. Petersson, B., 1994. Methods Enzymology 6. 99-110) using Biacore T200 Evaluation Software 3.0. Affinities were deduced from the quotient of the kinetic rate constants (KD=koff/kon).

Binder	Kd [nM]	koff [s⁻¹]	kon [M⁻¹ s⁻¹]
B1	0.81	0.000946	1.17e+06
B2	0.787	0.000772	981000
B3	0.69	0.000732	1.06e+06
B4	0.805	0.000874	1.09e+06
B5	0.7	0.000792	1.13e+06
B6	0.758	0.000881	1.16e+06
B7	0.699	0.000793	1.13e+06
B8	0.623	0.000753	1.21e+06
B9	0.625	0.000827	1.32e+06
B10	0.471	0.000626	1.33e+06
B11	0.475	0.000617	1.3e+06
B12	0.502	0.000696	1.39e+06
B13	3.57	0.0009	252000
